“And” between values parts separate entries of the source, which are not always exact repeats. Equal entries are not always repeated. Where two headings read alike, the source gives them in different places.

Holding throughout (assay): mass photometry
Assay [1] addresses full-length dynein complex AAA3^WB (E2488Q) (yeast, UniProt P36022 1-4092; P40960 1-533; Q04949 1-312; Q02647 1-92, E2488Q).
The target of assay [2] is T1, full-length dynein complex AAA3^WA (dynein-K2424A) (yeast, UniProt P36022 1-4092; P40960 1-533; Q04949 1-312; Q02647 1-92, K2424A).
Assay [3] concerns the target T1, full-length dynein complex AAA3^WA …. This is another data set of the same source.
The target is the same in assay [4]. The source holds these as a separate data set.

T1 sequence (P36022 whole entry K2424A, chain 1 of 4): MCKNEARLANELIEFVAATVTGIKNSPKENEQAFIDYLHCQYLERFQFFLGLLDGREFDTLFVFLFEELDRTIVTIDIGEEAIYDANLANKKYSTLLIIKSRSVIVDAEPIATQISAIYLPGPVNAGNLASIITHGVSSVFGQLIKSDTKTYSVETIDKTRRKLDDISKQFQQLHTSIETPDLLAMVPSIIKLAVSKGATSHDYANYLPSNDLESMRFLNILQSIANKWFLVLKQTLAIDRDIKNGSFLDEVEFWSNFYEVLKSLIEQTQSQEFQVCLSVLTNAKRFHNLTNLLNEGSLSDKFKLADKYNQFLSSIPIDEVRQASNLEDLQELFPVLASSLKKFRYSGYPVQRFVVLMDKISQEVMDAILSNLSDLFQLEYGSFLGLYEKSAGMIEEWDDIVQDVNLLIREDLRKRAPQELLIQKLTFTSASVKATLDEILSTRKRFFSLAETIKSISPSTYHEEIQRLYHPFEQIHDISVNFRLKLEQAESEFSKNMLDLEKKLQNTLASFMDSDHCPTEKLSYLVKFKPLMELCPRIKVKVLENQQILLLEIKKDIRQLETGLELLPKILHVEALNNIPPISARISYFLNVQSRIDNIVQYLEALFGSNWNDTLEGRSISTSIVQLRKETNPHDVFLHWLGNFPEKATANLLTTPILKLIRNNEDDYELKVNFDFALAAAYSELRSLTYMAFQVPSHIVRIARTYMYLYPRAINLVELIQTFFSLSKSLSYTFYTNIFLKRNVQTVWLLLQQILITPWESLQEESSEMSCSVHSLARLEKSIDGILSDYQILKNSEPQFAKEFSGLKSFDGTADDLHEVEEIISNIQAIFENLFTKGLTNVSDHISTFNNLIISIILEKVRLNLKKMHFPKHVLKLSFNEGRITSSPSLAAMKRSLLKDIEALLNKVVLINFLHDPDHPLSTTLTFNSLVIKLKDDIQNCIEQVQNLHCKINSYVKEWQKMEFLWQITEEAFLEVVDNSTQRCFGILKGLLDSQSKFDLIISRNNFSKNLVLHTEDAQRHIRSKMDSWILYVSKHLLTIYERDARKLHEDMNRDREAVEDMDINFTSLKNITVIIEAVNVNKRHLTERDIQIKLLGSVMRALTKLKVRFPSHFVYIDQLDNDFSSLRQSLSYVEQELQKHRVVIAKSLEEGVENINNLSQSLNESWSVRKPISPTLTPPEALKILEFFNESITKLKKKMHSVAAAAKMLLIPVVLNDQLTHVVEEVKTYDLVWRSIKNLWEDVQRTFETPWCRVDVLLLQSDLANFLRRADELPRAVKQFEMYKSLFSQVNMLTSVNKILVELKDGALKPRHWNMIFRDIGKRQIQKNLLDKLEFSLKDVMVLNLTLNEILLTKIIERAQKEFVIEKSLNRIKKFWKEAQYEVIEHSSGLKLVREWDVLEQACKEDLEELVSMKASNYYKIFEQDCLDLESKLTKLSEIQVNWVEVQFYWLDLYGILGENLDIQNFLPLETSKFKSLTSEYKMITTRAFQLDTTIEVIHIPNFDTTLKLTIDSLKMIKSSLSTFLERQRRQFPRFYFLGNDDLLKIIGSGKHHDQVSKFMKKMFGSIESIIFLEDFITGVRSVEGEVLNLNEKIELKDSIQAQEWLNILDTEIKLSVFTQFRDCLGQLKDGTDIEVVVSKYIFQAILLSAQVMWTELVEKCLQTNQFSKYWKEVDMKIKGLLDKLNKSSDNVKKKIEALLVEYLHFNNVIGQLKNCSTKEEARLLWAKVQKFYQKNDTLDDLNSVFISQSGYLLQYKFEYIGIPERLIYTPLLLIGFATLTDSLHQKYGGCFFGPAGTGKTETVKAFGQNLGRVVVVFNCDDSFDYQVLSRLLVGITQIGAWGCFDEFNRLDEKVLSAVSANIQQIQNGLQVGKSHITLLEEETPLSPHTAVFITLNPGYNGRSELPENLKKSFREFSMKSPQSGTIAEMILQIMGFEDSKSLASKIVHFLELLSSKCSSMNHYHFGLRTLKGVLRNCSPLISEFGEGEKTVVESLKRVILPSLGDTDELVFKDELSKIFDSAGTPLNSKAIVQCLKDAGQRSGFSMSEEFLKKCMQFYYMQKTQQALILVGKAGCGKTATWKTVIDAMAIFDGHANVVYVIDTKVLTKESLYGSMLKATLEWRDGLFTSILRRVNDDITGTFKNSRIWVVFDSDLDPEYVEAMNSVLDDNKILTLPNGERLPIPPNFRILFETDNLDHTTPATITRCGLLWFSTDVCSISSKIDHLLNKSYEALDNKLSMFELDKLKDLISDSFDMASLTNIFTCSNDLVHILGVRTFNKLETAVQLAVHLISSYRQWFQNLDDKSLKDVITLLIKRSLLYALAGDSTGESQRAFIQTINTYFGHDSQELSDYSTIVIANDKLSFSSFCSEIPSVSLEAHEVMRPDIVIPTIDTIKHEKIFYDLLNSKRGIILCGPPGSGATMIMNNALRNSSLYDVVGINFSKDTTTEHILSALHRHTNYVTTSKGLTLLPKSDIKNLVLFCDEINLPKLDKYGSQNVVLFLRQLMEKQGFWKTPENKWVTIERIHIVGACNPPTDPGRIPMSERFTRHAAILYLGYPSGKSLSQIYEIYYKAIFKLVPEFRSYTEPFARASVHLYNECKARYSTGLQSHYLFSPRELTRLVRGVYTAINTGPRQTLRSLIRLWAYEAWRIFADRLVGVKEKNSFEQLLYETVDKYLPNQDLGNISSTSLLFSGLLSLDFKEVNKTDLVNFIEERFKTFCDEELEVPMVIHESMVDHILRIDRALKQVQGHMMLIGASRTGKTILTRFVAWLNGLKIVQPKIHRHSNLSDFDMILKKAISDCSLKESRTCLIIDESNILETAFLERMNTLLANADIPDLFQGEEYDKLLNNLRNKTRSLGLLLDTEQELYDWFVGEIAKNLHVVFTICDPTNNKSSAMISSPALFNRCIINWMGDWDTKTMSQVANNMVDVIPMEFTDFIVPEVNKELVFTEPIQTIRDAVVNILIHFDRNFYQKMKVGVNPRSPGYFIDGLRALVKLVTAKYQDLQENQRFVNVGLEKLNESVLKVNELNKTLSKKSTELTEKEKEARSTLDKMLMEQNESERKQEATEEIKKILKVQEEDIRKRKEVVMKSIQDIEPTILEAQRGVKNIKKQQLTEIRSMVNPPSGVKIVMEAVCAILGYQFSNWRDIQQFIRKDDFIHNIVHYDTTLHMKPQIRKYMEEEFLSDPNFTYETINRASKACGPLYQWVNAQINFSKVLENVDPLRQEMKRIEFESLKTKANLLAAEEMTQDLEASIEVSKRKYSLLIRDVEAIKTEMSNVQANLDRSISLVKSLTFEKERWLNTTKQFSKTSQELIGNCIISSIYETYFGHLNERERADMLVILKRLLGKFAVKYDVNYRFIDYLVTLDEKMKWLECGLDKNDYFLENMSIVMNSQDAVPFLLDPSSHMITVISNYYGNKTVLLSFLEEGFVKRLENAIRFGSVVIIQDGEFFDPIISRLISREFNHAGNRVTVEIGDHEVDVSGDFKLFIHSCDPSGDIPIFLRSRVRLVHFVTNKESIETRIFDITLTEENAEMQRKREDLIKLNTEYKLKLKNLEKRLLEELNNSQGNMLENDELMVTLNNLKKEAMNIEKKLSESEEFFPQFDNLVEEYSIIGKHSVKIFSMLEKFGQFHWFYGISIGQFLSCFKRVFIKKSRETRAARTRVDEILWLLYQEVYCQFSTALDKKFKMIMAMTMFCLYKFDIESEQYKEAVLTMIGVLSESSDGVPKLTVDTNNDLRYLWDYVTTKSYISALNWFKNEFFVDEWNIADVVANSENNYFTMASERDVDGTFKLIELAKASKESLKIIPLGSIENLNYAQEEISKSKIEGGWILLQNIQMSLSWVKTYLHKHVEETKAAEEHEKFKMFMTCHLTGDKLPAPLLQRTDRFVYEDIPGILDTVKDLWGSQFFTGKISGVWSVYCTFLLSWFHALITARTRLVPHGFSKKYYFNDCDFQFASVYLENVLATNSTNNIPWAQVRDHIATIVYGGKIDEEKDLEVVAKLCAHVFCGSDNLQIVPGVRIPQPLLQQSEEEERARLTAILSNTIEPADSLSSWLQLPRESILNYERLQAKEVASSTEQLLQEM
T1 sequence (P40960 whole entry, chain 2 of 4): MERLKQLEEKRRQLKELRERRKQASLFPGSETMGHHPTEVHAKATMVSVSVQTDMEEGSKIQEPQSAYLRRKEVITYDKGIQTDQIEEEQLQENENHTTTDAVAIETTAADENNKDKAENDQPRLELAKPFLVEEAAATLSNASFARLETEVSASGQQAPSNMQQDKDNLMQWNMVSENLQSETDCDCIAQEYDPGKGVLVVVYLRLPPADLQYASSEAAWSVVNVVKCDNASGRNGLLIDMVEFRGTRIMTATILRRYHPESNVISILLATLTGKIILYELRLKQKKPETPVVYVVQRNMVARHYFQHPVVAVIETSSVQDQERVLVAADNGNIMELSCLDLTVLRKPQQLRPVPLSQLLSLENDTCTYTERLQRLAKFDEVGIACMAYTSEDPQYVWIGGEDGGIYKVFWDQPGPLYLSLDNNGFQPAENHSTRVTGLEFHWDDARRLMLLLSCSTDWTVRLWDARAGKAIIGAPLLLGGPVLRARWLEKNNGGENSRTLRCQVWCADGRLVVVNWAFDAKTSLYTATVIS
T1 sequence (Q04949 whole entry, chain 3 of 4): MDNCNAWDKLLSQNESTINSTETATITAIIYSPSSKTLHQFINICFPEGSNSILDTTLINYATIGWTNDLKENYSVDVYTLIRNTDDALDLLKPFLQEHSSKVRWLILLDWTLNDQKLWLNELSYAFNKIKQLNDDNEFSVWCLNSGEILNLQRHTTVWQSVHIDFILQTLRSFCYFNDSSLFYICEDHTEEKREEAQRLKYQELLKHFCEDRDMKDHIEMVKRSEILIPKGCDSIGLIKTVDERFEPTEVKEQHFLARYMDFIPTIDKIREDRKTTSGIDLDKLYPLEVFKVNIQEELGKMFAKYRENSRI
T1 sequence (Q02647 whole entry, chain 4 of 4): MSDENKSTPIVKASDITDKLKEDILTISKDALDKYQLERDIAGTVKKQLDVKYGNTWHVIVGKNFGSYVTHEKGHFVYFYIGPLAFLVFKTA

B1: Pac1 (full-length; yeast homolog of Lis1) (natural protein)
chain: MTNWQQQLPLTDTQKNELDKSVLRYLNWNYKQTVRHEHAQDYESVRHAIVTLSGFLLQESVDRQEFISNNDTSNESMVDIDELLLPKKWNSIVRLQKKIIELEQNTETLVSQIKDLNTQVSELAQFKPTTSNGTSAHNVLKWIPRNLPSCLINVESSVTSVKLHPNLPIVFVATDHGKLYAFDLFNYTIPLASLQSHTKAITSMDVLFTNYTNSSKKNYLVIVTASKDLQIHVFKWVSEECKFQQIRSLLGHEHIVSAVKIWQKNNDVHIASCSRDQTVKIWDFHNGWSLKTFQPHSQWVRSIDVLGDYIISGSHDTTLRLTHWPSGNGLSVGTGHEFPIEKVKFIHFIEDSPEIRFRTPSTDRYKNWGMQYCVSASRDRTIKIWEIPLPTLMAHRAPIPNPTDSNFRCVLTLKGHLSWVRDISIRGQYLFSCADDKSVRCWDLNTGQCLHVWEKLHTGFVNCLDLDVDFDSNVTPRQMMVTGGLDCKSNVFMR
For B1, the “stoichiometry N” value was 1 Pac1 dimer per dynein complex and 2 Pac1 dimers per dynein complex in assay [1]; 1 Pac1 dimer per dynein complex in assay [2]; 2 Pac1 dimers per dynein complex in assay [3].

B2: Pac1 site^linker mutant (T403A, S405A, N406A, R320A, V332A) (natural protein)
chain: MTNWQQQLPLTDTQKNELDKSVLRYLNWNYKQTVRHEHAQDYESVRHAIVTLSGFLLQESVDRQEFISNNDTSNESMVDIDELLLPKKWNSIVRLQKKIIELEQNTETLVSQIKDLNTQVSELAQFKPTTSNGTSAHNVLKWIPRNLPSCLINVESSVTSVKLHPNLPIVFVATDHGKLYAFDLFNYTIPLASLQSHTKAITSMDVLFTNYTNSSKKNYLVIVTASKDLQIHVFKWVSEECKFQQIRSLLGHEHIVSAVKIWQKNNDVHIASCSRDQTVKIWDFHNGWSLKTFQPHSQWVRSIDVLGDYIISGSHDTTLALTHWPSGNGLSAGTGHEFPIEKVKFIHFIEDSPEIRFRTPSTDRYKNWGMQYCVSASRDRTIKIWEIPLPTLMAHRAPIPNPADAAFRCVLTLKGHLSWVRDISIRGQYLFSCADDKSVRCWDLNTGQCLHVWEKLHTGFVNCLDLDVDFDSNVTPRQMMVTGGLDCKSNVFMR
For B2, in assay [4], the binding result is listed as “binds”.
